Results from the supplement of paper PMC11246515.
± gives the standard deviation of the averaged measurements.

Experiment: total protein half-life in vivo (active degradation + dilution); higher = more stable protein
[1] = E. coli NCM3722 delta-clpP delta-lon delta-hslV, growth: N-lim chemostat, doubling time 6 h
[2] = E. coli NCM3722 delta-clpP, growth: N-lim chemostat, doubling time 6 h
[3] = E. coli NCM3722 delta-hslV, growth: N-lim chemostat, doubling time 6 h
[4] = E. coli NCM3722 delta-lon, growth: N-lim chemostat, doubling time 6 h
[5] = E. coli NCM3722 delta-smpB, growth: N-lim chemostat, doubling time 6 h
[6] = wild type E. coli NCM3722, growth: C-lim chemostat, doubling time 3 h
[7] = wild type E. coli NCM3722, growth: C-lim chemostat, doubling time 6 h
[8] = wild type E. coli NCM3722, growth: C-lim chemostat, doubling time 12 h
[9] = wild type E. coli NCM3722, growth: N-lim chemostat, doubling time 6 h
[10] = wild type E. coli NCM3722, growth: N-lim chemostat, doubling time 12 h
[11] = wild type E. coli NCM3722, growth: P-lim chemostat, doubling time 6 h
[12] = wild type E. coli NCM3722, growth: P-lim chemostat, doubling time 12 h

Row | Sequence | total protein half-life in vivo [1] | total protein half-life in vivo [2] | total protein half-life in vivo [3] | total protein half-life in vivo [4] | total protein half-life in vivo [5] | total protein half-life in vivo [6] | total protein half-life in vivo [7] | total protein half-life in vivo [8] | total protein half-life in vivo [9] | total protein half-life in vivo [10] | total protein half-life in vivo [11] | total protein half-life in vivo [12]
1 | MRLEVFCEDRLGLTRELLDLLVLRGIDLRGIEIDPIGRIYLNFAELEFESFSSLMAEIRRIAGVTDVRTVPWMPSEREHLALSALLEALPEPVLSVDMKSKVDMANPASCQLFGQKLDRLRNHTAAQLINGFNFLRWLESEPQDSHNEHVVINGQNFLMEITPVYLQDENDQHVLTGAVVMLRSTIRMGRQLQNVAAQDVSAFSQIVAVSPKMKHVVEQAQKLAMLSAPLLITGDTGTGKDLFAYACHQASPRAGKPYLALNCASIPEDAVESELFGHAPEGKKGFFEQANGGSVLLDEIGEMSPRMQAKLLRFLNDGTFRRVGEDHEVHVDVRVICATQKNLVELVQKGMFREDLYYRLNVLTLNLPPLRDCPQDIMPLTELFVARFADEQGVPRPKLAADLNTVLTRYAWPGNVRQLKNAIYRALTQLDGYELRPQDILLPDYDAATVAVGEDAMEGSLDEITSRFERSVLTQLYRNYPSTRKLAKRLGVSHTAIANKLREYGLSQKKNEE | 6.71 ± 0.79 h | 4.83 ± 0.089 h | 4.73 ± 0.23 h | 6.13 ± 0.71 h | 4.6 ± 0.14 h | 2.69 ± 0.14 h | 5.844 ± 0.052 h | 8.21 ± 0.57 h | 4.51 ± 0.34 h | 8.243 ± 0.066 h | 4.84 ± 0.092 h | 9.34 ± 0.13 h
2 | MRLLHTMLRVGDLQRSIDFYTKVLGMKLLRTSENPEYKYSLAFVGYGPETEEAVIELTYNWGVDKYELGTAYGHIALSVDNAAEACEKIRQNGGNVTREAGPVKGGTTVIAFVEDPDGYKIELIEEKDAGRGLGN [P0AC81] | 5.13 ± 0.38 h | 4.5 ± 0.53 h | 4.72 ± 0.37 h | 5 ± 0.3 h | 4.3 ± 0.39 h | 3.48 ± 0.63 h | 5.44 ± 0.1 h | 8.9 ± 0.29 h | 4.38 ± 0.4 h | 8.01 ± 1 h | 5.41 ± 0.27 h | 11.6 ± 0.91 h
3 | MRLPIFLDTDPGIDDAVAIAAAIFAPELDLQLMTTVAGNVSVEKTTRNALQLLHFWNAEIPLAQGAAVPLVRAPRDAASVHGESGMAGYDFVEHNRKPLGIPAFLAIRDALMRAPEPVTLVAIGPLTNIALLLSQCPECKPYIRRLVIMGGSAGRGNCTPNAEFNIAADPEAAACVFRSGIEIVMCGLDVTNQAILTPDYLSTLPQLNRTGKMLHALFSHYRSGSMQSGLRMHDLCAIAWLVRPDLFTLKPCFVAVETQGEFTSGTTVVDIDGCLGKPANVQVALDLDVKGFQQWVAEVLALAS | 4.86 ± 1.4 h | 4.75 h |  | 4.13 h | 3.64 h | 2.8 ± 0.15 h | 5.62 ± 0.1 h | 9.27 ± 3.1 h | 3.89 h | 11.1 h |  | 8.95 ± 3.1 h
4 | MRLTTKFSAFVTLLTGLTIFVTLLGCSLSFYNAIQYKFSHRVQAVATAIDTHLVSNDFSVLRPQITELMMSADIVRVDLLHGDKQVYTLARNGSYRPVGSSDLFRELSVPLIKHPGMSLRLVYQDPMGNYFHSLMTTAPLTGAIGFIIVMLFLAVRWLQRQLAGQELLETRATRILNGERGSNVLGTIYEWPPRTSSALDTLLREIQNAREQHSRLDTLIRSYAAQDVKTGLNNRLFFDNQLATLLEDQEKVGTHGIVMMIRLPDFNMLSDTWGHSQVEEQFFTLTNLLSTFMMRYPGALLARYHRSDFAALLPHRTLKEAESIAGQLIKAVDTLPNNKMLDRDDMIHIGICAWRSGQDTEQVMEHAESATRNAGLQGGNSWAIYDDSLPEKGRGNVRWRTLIEQMLSRGGPRLYQKPAVTREGQVHHRELMCRIFDGNEEVSSAEYMPMVLQFGLSEEYDRLQISRLIPLLRYWPEENLAIQVTVESLIRPRFQRWLRDTLMQCEKSQRKRIIIELAEADVGQHISRLQPVIRLVNALGVRVAVNQAGLTLVSTSWIKELNVELLKLHPGLVRNIEKRTENQLLVQSLVEACSGTSTQVYATGVRSRSEWQTLIQRGVTGGQGDFFASSQPLDTNVKKYSQRYSV | 6 ± 1.2 h | 6.52 ± 0.62 h | 6.35 ± 0.42 h | 5.67 ± 0.62 h | 5.945 ± 0.0086 h | 3.44 ± 0.17 h | 6.042 ± 0.0062 h |  | 6.45 ± 0.23 h | 11.59 ± 0.06 h | 5.52 ± 0.13 h | 13 ± 0.43 h
5 | MRNFDLSPLMRQWIGFDKLANALQNAGESQSFPPYNIEKSDDNHYRITLALAGFRQEDLEIQLEGTRLSVKGTPEQPKEEKKWLHQGLMNQPFSLSFTLAENMEVSGATFVNGLLHIDLIRNEPEPIAAQRIAISERPALNS [P0C058] | 6.3 ± 0.16 h | 2.21 ± 0.097 h |  |  | 1.42 h | 1.03 h |  | 1.59 h | 4.47 h | 3.19 h |  | 
6 | MRNFDLSPLYRSAIGFDRLFNHLENNQSQSNGGYPPYNVELVDENHYRIAIAVAGFAESELEITAQDNLLVVKGAHADEQKERTYLYQGIAERNFERKFQLAENIHVRGANLVNGLLYIDLERVIPEAKKPRRIEIN [P0C054] |  | 3.11 ± 0.15 h | 1.47 ± 0.1 h | 2.83 ± 0.24 h | 1.35 ± 0.082 h | 1.2 ± 0.21 h | 1.83 ± 0.025 h | 1.87 ± 0.3 h | 1.65 ± 0.42 h | 2.7 ± 0.45 h | 1.58 ± 0.077 h | 3.08 ± 0.14 h
7 | MRNHRISLQDIATLAGVTKMTVSRYIRSPKKVAKETGERIAKIMEEINYIPNRAPGMLLNAQSYTLGILIPSFQNQLFADILAGIESVTSEHNYQTLIANYNYDRDSEEESVINLLSYNIDGIILSEKYHTIRTVKFLRSATIPVVELMDVQGERLDMEVGFDNRQAAFDMVCTMLEKRVRHKILYLGSKDDTRDEQRYQGYCDAMMLHNLSPLRMNPRAISSIHLGMQLMRDALSANPDLDGVFCTNDDIAMGALLLCRERNLAVPEQISIAGFHGLEIGRQMIPSLASVITPRFDIGRMAAQMLLSKIKNNDHNHNTVDLGYQIYHGNTL | 6.39 ± 1.7 h |  |  |  |  | 0.548 h |  | 1.1 h |  |  |  | 
